From publication PMC3936483 (The Biochemical journal, 2008)
Residue numbers refer to the chain shown, from its start. Names may count otherwise. “And” between values parts separate entries of the source, which are not always exact repeats. Equal entries are not always repeated.

B1: serum CTRP5 (natural protein, mouse (endogenous in C57BL/6 serum), UniProt Q8K479 16-243, looked up)
chain: SPPLDDNKIPSLCPGQPGLPGTPGHHGSQGLPGRDGRDGRDGAPGAPGEKGEGGRPGLPGPRGEPGPRGEAGPMGAIGPAGECSVPPRSAFSAKRSESRVPPPADTPLPFDRVLLNEQGHYDPTTGKFTCQVPGVYYFAVHATVYRASLQFDLVKNGQSIASFFQYFGGWPKPASLSGGAMVRLEPEDQVWVQVGVGDYIGIYASIKTDSTFSGFLVYSDWHSSPVFA
B2: CTRP1ΔCys (C73A/C76A/C77A/C141A), C-terminal FLAG-tagged (natural protein, mouse, UniProt Q9QXP7 26-281, looked up)
chain: LVPRVQEEQQEWEETEELPSPLDPVTRPEETREKYSPRQGEDLPTSRAYRAADPSTPVYQTIPPPQINITILKGEKGDRGDRGLQGKYGKIGSTGPRGHVGPKGQKGSIGAPGNHAKSQYAAFSVGRKKALHSNDYFQPVVFDTEFVNLYKHFNMFTGKFYCYVPGIYFFSLNVHTWNQKETYLHIMKNEEEVVILYAQVSDRSIMQSQSLMMELREEDEVWVRLFKGERENAIFSDEFDTYITFSGYLVKPASEP
B3: CTRP1 (C1q/TNF-related protein 1), C-terminal FLAG- or HA-tagged, full length (natural protein, mouse, UniProt Q9QXP7 26-281, looked up)
chain: B2 chain with A48C, A51C, A52C, A116C
modifications: N-linked glycans (site not given)
B4: CTRP5ΔCys (C28A/C98A), C-terminal FLAG-tagged (natural protein, UniProt Q8K479 16-243, looked up)
chain: B1 chain with C13A, C83A
B5: CTRP5 (C1q/TNF-related protein 5), C-terminal FLAG- or HA-tagged, full length (natural protein, UniProt Q8K479 16-243, looked up)
chain: B1 chain
modifications: carbohydrate moieties (type and sites not determined; none N-linked)
B6: CTRP10 (C1q/TNF-related protein 10), C-terminal FLAG- or HA-tagged, full length (natural protein, mouse, UniProt Q8CFR0 22-287, looked up)
chain: HYEMLGTCRMICDPYSVAPAGGPAGAKAPPPGPSTAALEVMQDLSANPPPPFIQGPKGDPGRPGKPGPRGPPGEPGPPGPRGPPGEKGDSGRPGLPGLQLTTSAAGGVGVVSGGTGGGGDTEGEVTSALSAAFSGPKIAFYVGLKSPHEGYEVLKFDDVVTNLGNHYDPTTGKFSCQVRGIYFFTYHILMRGGDGTSMWADLCKNGQVRASAIAQDADQNYDYASNSVVLHLDSGDEVYVKLDGGKAHGGNNNKYSTFSGFLLYPD
modifications: carbohydrate moieties (type and sites not determined; none N-linked)
B7: CTRP10ΔCys (C29A/C33A), C-terminal FLAG-tagged (natural protein, mouse, UniProt Q8CFR0 22-287, looked up)
chain: B6 chain with C8A, C12A
B8: CTRP3ΔCys (C39A/C42A/C43A), C-terminal FLAG-tagged (natural protein, UniProt Q9ES30 23-246, looked up)
chain: QDEYMESPQAGGLPPDASKAAHGDYGFRGYQGPPGPPGPPGIPGNHGNNGNNGATGHEGAKGEKGDKGDLGPRGERGQHGPKGEKGYPGVPPELQIAFMASLATHFSNQNSGIIFSSVETNIGNFFDVMTGRFGAPVSGVYFFTFSMMKHEDVEEVYVYLMHNGNTVFSMYSYETKGKSDTSSNHAVLKLAKGDEVWLRMGNGALHGDHQRFSTFAGFLLFETK
B9: CTRP3 (C1q/TNF-related protein 3), C-terminal FLAG- or HA-tagged, full length (natural protein, UniProt Q9ES30 23-246, looked up)
chain: B8 chain with A17C, A20C, A21C
modifications: carbohydrate moieties (type and sites not determined; none N-linked)
B10: CTRP6 (C1q/TNF-related protein 6), C-terminal FLAG- or HA-tagged, full length (natural protein, UniProt Q6IR41 25-264, looked up)
chain: VPTEETTFGESVASHLPKGCRRCCDPEDLMSSDDTVQAPVSPYVLPEVRPYINITILKGDKGDRGPTGTPGKPGKNGTRGDRGSQGVKGDKGQAGSPGSSCQTHYSAFSVGRKTGLHSSENFLSLLFDRVFVNTDGHFDMATGSFVAPLRGLYFFSLNVHSWNYKETYVHIVHNEQAVVILYAQPSERSIMQSQSVMLPLVPGDRVWVRLFKRERENGIYSDDVDTYITFSGHLIKAEDN
modifications: N-linked glycans (sites not given)
B11: CTRP6ΔCys (C44A/C47A/C48A/C125A), C-terminal FLAG- or HA-tagged (natural protein, UniProt Q6IR41 25-264, looked up)
chain: B10 chain with C20A, C23A, C24A, C101A
B12: adiponectin, C-terminal FLAG- or HA-tagged, full length (natural protein, UniProt Q60994 18-247, looked up)
chain: EDDVTTTEELAPALVPPPKGTCAGWMAGIPGHPGHNGTPGRDGRDGTPGEKGEKGDAGLLGPKGETGDVGMTGAEGPRGFPGTPGRKGEPGEAAYVYRSAFSVGLETRVTVPNVPIRFTKIFYNQQNHYDGSTGKFYCNIPGLYYFSYHITVYMKDVKVSLFKKDKAVLFTYDQYQEKNVDQASGSVLLHLEVGDQVWLQVYGDGDHNGLYADNVNDSTFTGFLLYHDTN

Target: the molecule itself
Test: SEC

Protein | stoichiometry N
B1 | 3

Target: the molecule itself
Test: SEC
Remark: another data set of the same source

Protein | stoichiometry N
B2 | 3
B3 | 3
B4 | 3
B5 | 3 and ~6
B6 | 3 and ~6
B7 | 3
B8 | 3
B9 | 3 and ~6
B10 | ~6 and 3
B11 | 3
B12 | 3 and 6
